Data set [1] has as its target Truncated Synechocystis FRP spanning amino acids 8-109 (Synechocystis sp. PCC 6803). Nature of the data set: SEC-MALS + other: SAXS. Background: SEC sorts molecules by how far they enter the pores of the column.
The data set “SAXS” concerns the molecule itself. Nature of the data set: SAXS.
Data set [2] concerns the target T1, Synechocystis OCP lacking the N-terminal extension, construct OCP_(13-317), holoprotein (Synechocystis sp. PCC 6803, UniProt P74102 13-317).
T1 sequence: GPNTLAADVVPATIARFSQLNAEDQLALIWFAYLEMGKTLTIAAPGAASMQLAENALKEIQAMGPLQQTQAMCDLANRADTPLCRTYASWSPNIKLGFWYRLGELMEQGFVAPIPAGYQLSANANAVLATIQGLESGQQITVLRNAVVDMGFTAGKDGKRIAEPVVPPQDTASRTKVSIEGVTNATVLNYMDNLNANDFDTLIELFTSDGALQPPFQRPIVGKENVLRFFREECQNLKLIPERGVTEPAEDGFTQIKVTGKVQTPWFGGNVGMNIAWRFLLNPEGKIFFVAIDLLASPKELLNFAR
Nature of the data set: SEC-MALS.

As usually defined, the stoichiometry N is a count of units in the complex or per binding partner. On to “Truncated Synechocystis FRP spanning amino acids 8-109 (domain or fragment)”, for which, in data set [1], the stoichiometry N turned out to be 2.

B1: Arthrospira maxima FRP (natural protein)
chain: MSEINWSEQDKNAAVDALHKAYEREVKILIDEVKQKAFNLTEIDEVWKLHDFLSARRHDIDGKYDYRDAASVFVLATLVKQGWLSLEELQVLGQDKLAKISALTRL
Regarding B1, the “stoichiometry N” value in the data set “SAXS” is 2; in data set [2], 1 FRP per OCP.

B2: Synechocystis FRP (fluorescence recovery protein), wild-type construct with uncleavable N-terminal His6 tag and linker (natural protein)
chain: LQTAEAPWSQAETQSAHALFRKAYQRELDGLLATVQAQASQITQIDDLWKLHDFLSAKRHEIDGKYDDRQSVIIFVFAQLLKEGLVQAEELTFLAADKQSKIKALARL
For the molecule B2, the “stoichiometry N” value in data set [2] came out at 2 FRP per OCP.
